Two molecules from patent US20200199207A1 (MABYLON, published 2020) can be followed below.

One assay has as its target T1, Peptide 6 (peanut).
T1 construct: also called linear Ara h 2 peptide 6
T1 peptide: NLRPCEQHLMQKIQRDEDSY
As to the kind of experiment: competition ELISA, peptide in solution vs coated Ara h 2. The essentials:
(§1)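 Antibody ([…]) pre-incubated 1 h at room temperature with serially diluted 20-mer overlapping linear Ara h 2 peptides (100 μM to 0.19 nM), then applied to plates coated with full-length Ara h 2 (0.05 μg/ml). Bound antibody detected by HRP anti-human Fc-gamma with TMB.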
In general terms: An ELISA detects its analyte on a solid surface through an enzyme-linked reagent.

Another assay addresses T2, Peptide 17 (peanut).
T2 construct: also called linear Ara h 2 peptide 17
T2 peptide: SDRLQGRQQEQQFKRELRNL
The description is as above. Summed up: as §1

Another assay has as its target T3, Peptide 3 (peanut).
T3 construct: also called linear Ara h 2 peptide 3
T3 peptide: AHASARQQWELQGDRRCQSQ
The description is as above. The essentials:
as §1

For a further assay, the target named is T4, Peptide 13 (peanut).
T4 construct: also called linear Ara h 2 peptide 13
T4 peptide: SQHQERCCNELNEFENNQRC
The description is as above. The essentials: as §1

The target of the next assay is T5, Peptide 4 (peanut).
T5 construct: also called linear Ara h 2 peptide 4
T5 peptide: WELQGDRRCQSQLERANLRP
The description is as above. The essentials: as §1

In a further assay the target is T6, Peptide 11 (peanut).
T6 construct: also called linear Ara h 2 peptide 11
T6 peptide: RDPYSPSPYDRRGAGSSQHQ
The description is as above. Summed up:
as §1

The target of a further assay is T7, Peptide 15 (peanut).
T7 construct: also called linear Ara h 2 peptide 15
T7 peptide: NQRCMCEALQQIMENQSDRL
Described as above. Summed up: as §1

A further assay deals with T8, Peptide 2 (peanut).
T8 construct: also called linear Ara h 2 peptide 2
T8 peptide: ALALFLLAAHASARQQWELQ
Described as above. The essentials:
as §1

A further assay deals with T9, Peptide 18 (peanut).
T9 construct: also called linear Ara h 2 peptide 18
T9 peptide: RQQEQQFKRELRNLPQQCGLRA
The assay is described as above. Summed up:
as §1

A further assay has as its target T10, Peptide 19 (peanut).
T10 construct: also called linear Ara h 2 peptide 19
T10 peptide: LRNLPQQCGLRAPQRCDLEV
The assay is described as above. Summed up:
as §1

The target in the next assay is T11, Peptide 7 (peanut).
T11 construct: also called linear Ara h 2 peptide 7
T11 peptide: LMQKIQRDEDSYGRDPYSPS
The description is as above. The essentials: as §1

Assay [1] concerns the target T12, Ara h 2 (peanut, UniProt Q6PSU2 22-172).
T12 construct: also called full length Ara h 2
T12 sequence (looked up): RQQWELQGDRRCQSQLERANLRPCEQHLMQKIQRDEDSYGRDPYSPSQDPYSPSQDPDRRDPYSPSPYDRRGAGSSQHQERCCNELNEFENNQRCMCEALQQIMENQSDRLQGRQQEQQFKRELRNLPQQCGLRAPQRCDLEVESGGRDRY
The experiment in a line: competition ELISA on coated Ara h 2; control: Healthy donor serum. On the procedure:
(§2) Microplates were coated with […] of Ara h 1, Ara h 2, Ara h 3, or Ara h 6, overnight at 4° C. After washing with PBS-Tween 0.05% and blocking with 2% BSA, plates were incubated with increasing concentrations of peanut human IgG antibodies for 1 h at room temperature. Subsequently, plates were incubated with different sera dilutions or different concentrations of murine antibody (as positive control). IgE levels were detected using anti-human HRP-conjugated Fc-epsilon-specific secondary antibody (Abcam, Cambridge, UK) followed by addition of TMB solution (TMB, Sigma, Buchs, Switzerland). Binding of murine antibodies was detected using goat anti-mouse IgG (H+L)-HRP (Jackson ImmunoResearch, West Grove, Pa., USA).

The target in assay [2] is T12, Ara h 2. The experiment in a line: competition ELISA on coated Ara h 2; competitor: Patient A serum IgE. On the procedure:
as §2

In assay [3] the target is T12, Ara h 2. As to the kind of experiment: competition ELISA on coated Ara h 2; competitor: Patient F serum IgE. Here is the method: as §2
The target of assay [4] is T12, Ara h 2. As to the kind of experiment: competition ELISA on coated Ara h 2; competitor: Patient C serum IgE. Here is the method:
as §2

The target of assay [5] is T12, Ara h 2. As to the kind of experiment: competition ELISA on coated Ara h 2; competitor: Patient E serum IgE. On the procedure:
as §2

Assay [6] concerns the target T12, Ara h 2. As to the kind of experiment: competition ELISA on coated Ara h 2; competitor: Patient G serum IgE. On the procedure:
as §2

A further assay concerns the target T13, nAra h 3 (peanut).
T13 construct: Bought natural allergen; also called naturally extracted Ara h 3
As to the kind of experiment: ELISA, antigen-coated plate.

B1: h32B10 (antibody, V domains shown)
VH: QVQLVQSGAEVKKPGASVKVSCRASGYIFRNFDINWVRQATGQGLEWMGWMSPKSGDTGYAQKFQGRVTMTRDTSINTAYMELSSLTSEDSAVYYCARGVDGTNWGQGTRVTVSS
VL: DIVMTQSPDSLGVSLGERATISCKSSQSILDNSNNKNFIAWFQQKPGQPPKLLIYWASARESGVPDRFSGSGSGTEFTLTINSLQAEDVAVYYCYQYYSTPHTFGQGTKLDLR
notes: Recombinant human IgG; also called hMAb 32B10
The term EC50 denotes the concentration at which the effect is half-maximal. Regarding B1, the binding result with Peptide 6 is listed as “no binding (tested: 100 µM)”; with Peptide 17 it was “no binding (tested: 100 µM)”; with Peptide 3 it was “no binding (tested: 100 µM)”; in the assay with Peptide 13, “no binding (tested: 100 µM)”; with Peptide 4, “binds”; in the assay with Peptide 11 it was “no binding (tested: 100 µM)”. In addition, the binding result in the assay with Peptide 15, in the assay with Peptide 2, with Peptide 18, in the assay with Peptide 19 and with Peptide 7 was “no binding (tested: 100 µM)” each time. The “% inhibition of IgE binding” value with Ara h 2 [1] stood at 0%; with Ara h 2 [2], 27.8%; in the assay with Ara h 2 [3], 23.1%; with Ara h 2 [4], 21%; in the assay with Ara h 2 [5] it was 29.3%; with Ara h 2 [6], 32.8%. For the same molecule, the EC50 with nAra h 3 was found to be 0.0049 µg/mL.

B2: h37D5 (antibody, V domains shown)
VH: EEQLVESGGRLLRPGESLSLSCAAVGFNFGDFGMAWVRQPPGKGLEWVAGINWSGHSTGFVDSMKGRLTISRDSAKSSLFLQMNSLRGEDTAVYYCARVGRLCSGDICDSMGAFDLWGQGTMVTVSS
VL: DIQMTQSPSTLSASIGDRVTITCRASQTIDNWLAWYQQRPGKAPKLLIYQASSLQSGVSSRFRGSGSGTEFTLTITSLQPDDFATYYCQKSNGYSRTFGQGTKVEIK
notes: Recombinant human IgG; also called hMAb 37D5
Consider B2, for which the binding result in the assay with Peptide 6 was “no binding (tested: 100 µM)”; with Peptide 17, “no binding (tested: 100 µM)”; with Peptide 3 it was “no binding (tested: 100 µM)”; with Peptide 13, “no binding (tested: 100 µM)”; with Peptide 4, “no binding (tested: 100 µM)”; with Peptide 11, “binds”. Moreover, the binding result with Peptide 15, in the assay with Peptide 2, in the assay with Peptide 18, with Peptide 19 and in the assay with Peptide 7 was “no binding (tested: 100 µM)” each time. For the same molecule, the “% inhibition of IgE binding” value with Ara h 2 [1] was 2.27%; with Ara h 2 [2], 27.8%; with Ara h 2 [3] it was 36.2%; with Ara h 2 [4], about 55.1%; with Ara h 2 [5], 29.3%; with Ara h 2 [6], 45.3%. The molecule also showed an EC50 with nAra h 3 of 0.0652 µg/mL.
